Laboratory results taken from PMC4669772, “The conserved Trp114 residue of thioredoxin reductase 1 has a redox sensor-like function triggering oligomerization and crosslinking upon oxidative stress related to cell death” (Cell Death & Disease, 2015).
Positions count from the first letter of the chain named.

Tests used:
[1] = target: the molecule itself; assay: SEC; propensity of purified recombinant rat TrxR1 variants to form oligomers (Supplementary Figure S8); oligomers separated on Superdex G200 at 4 °C
[2] = target: the molecule itself; assay: native gel or EMSA; purified recombinant TrxR1 tetramers, native PAGE under reducing conditions
[3] = target: the molecule itself; assay: native gel or EMSA; purified recombinant TrxR1 tetramers, native PAGE under oxidized (non-reducing) conditions; dimers to tetramer

B1: recombinant rat TrxR1 W114E (enzyme)
chain: MNDSKDAPKSYDFDLIIIGGGSGGLAAAKEAAKFDKKVMVLDFVTPTPLGTRWGLGGTCVNVGCIPKKLMHQAALLGQALKDSRNYGWKLEDTVKHDWEKMTESVQNHIGSLNEGYRVALREKKVVYENAYGKFIGPHKIMATNNKGKEKVYSAERFLIATGERPRYLGIPGDKEYCISSDDLFSLPYCPGKTLVVGASYVALECAGFLAGIGLDVTVMVRSILLRGFDQDMANKIGEHMEEHGIKFIRQFVPTKIEQIEAGTPGRLKVTAKSTNSEETIEDEFNTVLLAVGRDSCTRTIGLETVGVKINEKTGKIPVTDEEQTNVPYIYAIGDILEGKLELTPVAIQAGRLLAQRLYGGSTVKCDYDNVPTTVFTPLEYGCCGLSEEKAVEKFGEENIEVYHSFFWPLEWTVPSRDNNKCYAKVICNLKDNERVVGFHVLGPNAGEVTQGFAAALKCGLTKQQLDSTIGIHPVCAEIFTTLSVTKRSGGDILQSGCUG
modifications: selenocysteine (Sec, U) at 498
notes: thioredoxin reductase 1, rat, with Trp114 changed to Glu; also called Glu114; source: E. coli BL21 (DE3) gor-, purified (2'5'-ADP Sepharose, Superdex G200 size exclusion)
binding result [1]: binds

B2: recombinant rat thioredoxin reductase 1 (TrxR1), wild type (enzyme)
chain: B1 chain with E114W
modifications: selenocysteine (Sec, U) at 498
notes: thioredoxin reductase 1, rat, expressed from a pET-TRSTER-derived plasmid with pSUABC; FAD-containing homodimer; tetramers (two dimers) were purified from the same preparation in the absence of reductant; In the tetramer two of the four Trp114 are modified (oxidised) and linked; also called WT; wild-type TrxR1; source: E. coli BL21 (DE3) gor-, purified (2'5'-ADP Sepharose, Superdex G200 size …)
stoichiometry N [2]: 2
stoichiometry N [3]: 4

B3: recombinant rat TrxR1 W114R (enzyme)
chain: B1 chain with E114R
modifications: selenocysteine (Sec, U) at 498
notes: thioredoxin reductase 1, rat, with Trp114 changed to Arg; also called Arg114; source: E. coli BL21 (DE3) gor-, purified (2'5'-ADP Sepharose, Superdex G200 size exclusion)
binding result [1]: binds

B4: recombinant rat TrxR1 W114F (enzyme)
chain: B1 chain with E114F
modifications: selenocysteine (Sec, U) at 498
notes: thioredoxin reductase 1, rat, with Trp114 changed to Phe; also called Phe114; source: E. coli BL21 (DE3) gor-, purified (2'5'-ADP Sepharose, Superdex G200 size exclusion)
binding result [1]: binds

B5: recombinant rat TrxR1 W114G (enzyme)
chain: B1 chain with E114G
modifications: selenocysteine (Sec, U) at 498
notes: thioredoxin reductase 1, rat, with Trp114 changed to Gly; also called Gly114; source: E. coli BL21 (DE3) gor-, purified (2'5'-ADP Sepharose, Superdex G200 size exclusion)
binding result [1]: binds
